Reference: the supplement of paper PMC10567573

B1: FAM98B (parent)
chain: QLDKNSEVYQEVQAMFDTLGIPKS

Variants of: B1
Test: protein stability index of a GFP-peptide fusion (GPS, HEK-293T) (PSI 1-6); higher = more stable
Settings: c terminus: a fixed tail appended
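Note: lentivirally expressed fusions sorted by FACS into six bins by GFP to DsRed ratio, PSI derived from sequencing read proportions per bin multiplied by bin number.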

Protein stability index: each site, then its substitutions
F16: R 2.92, A 3.82, T 3.78, G 3.78, H 2.58, S 3.42, E 4.36, M 3.3, Y 3.57, W 2.1, P 4.42, L 3.12, N 3.77, Q 4.11, V 3.94, C 3.38, K 4.07, I 2.79
L2: W 4.03, T 4.32, V 3.87, R 3.58, Y 4.08, S 4.63
Q13: M 2.73, I 3.19, F 2.53, H 3.03, N 2.56, E 3.34, A 3.58, D 3.82, S 3.24, Y 2.36, W 2.24, V 3.15, G 3.09, C 2.88, L 3.29, T 3.86, R 2.59, P 3.27, K 2.55
A14: C 3.04, F 2.64, H 3.14, M 2.89, Q 3.61, I 3.22, P 3.81, G 2.58, E 3.79, W 2.63, K 3.03, V 2.77, Y 3.22, S 3.37, R 2.55, N 4.67, L 2.83, D 3.82, T 3.34
L19: D 2.85, C 3.69, I 3.06, Q 3.76, K 3.32, S 3.46, T 3.59, F 2.85, Y 3.6, R 3.7, E 3.58, N 3.38, A 3.64, G 3.49, M 3.15, W 2.45, V 3.56, P 3.17, H 3.71
K4: D 3.44, W 3.04, V 2.2, Q 3.03, H 3.43, A 3.04, F 2.93, T 3.08, S 3.52, Y 3.39, G 3.5, P 3, N 3.67, I 2.56, E 3.62, M 2.85, C 3, R 2.95, L 3.39
N5: L 2.69, E 3.86, A 3.56, Y 2.83, Q 4.22, T 4.11, S 3.97, G 3.98, P 4.37, M 3.24, R 3.55, K 3.88, D 4.66, H 3.94, W 2.91, F 3.41, I 2.88, C 3.37, V 3.99
V12: A 3, C 3.36, G 4, H 3.42, Y 2.56, K 3.22, P 3.34, R 2.8, D 4.19, Q 3.56, F 3.48, M 3.29, N 3.53, T 3.52, W 3.85, E 3.5, S 2.77, I 3.04, L 3.1
G20: C 2.63, F 3.04, A 3.04, E 3.77, D 3.74, H 2.55
E11: G 2.78, D 2.86, P 2.88, S 2.62, F 2.07, A 2.86, R 3.38, C 2.48, I 1.67, K 1.69, W 1.27, T 3.13, Y 2.7, M 2.36, V 2.56, L 2.28, N 2.64, Q 2.3, H 3.46
T18: E 3.57, W 2.02, M 2.78, G 3.25, R 3.33, A 3.34, F 3.52, V 2.57, D 3.87, K 2.25, I 2.79, Y 2.67, C 2.59, N 3.13, H 3.07, L 2.97, Q 3.24, P 3.38, S 2.85
M15: K 3.32, Q 3.56, D 3.68, C 2.73, N 3.1, H 3.08, T 3.25, G 3.69, Y 2.55, V 2.91, A 2.88, E 4.28, P 3.27, W 3.55, S 3.22, R 3.34, L 2.94, I 3.24, F 3.5
D3: A 3.46, G 3.73, F 2.73, T 3.06, Q 2.75, N 3.47, L 2.06, M 2.16, E 3.87, C 2.21, I 1.95, Y 2.49, V 2.67, K 3.45, W 2.08, R 3.21, P 3.11, H 3.43, S 2.93
E7: Y 2.26, A 3.44, I 1.99, F 2.39, W 2.13, M 3.01, S 2.77, Q 2.81, T 2.83, C 2.62, N 3.2, V 2.58, R 2.87, H 2.51, G 2.97, P 2.58, D 3.86, K 3.06, L 3.05
Q10: P 2.73, L 2.18, S 3.58, W 2.3, D 3.75, E 3.57, V 2.08, F 2, T 3.1, H 2.75, C 2.63, M 2.73, Y 2.49, A 3.01, R 2.29, K 2.53, N 3.07, G 3.01, I 1.39
D17: Q 2.86, L 2.23, T 3.12, C 2.64, Y 2.02, I 1.83, N 3.73, V 2.38, F 3.27, S 3.14, K 2.77, P 3.49, W 1.57, R 2.71, A 2.92, G 3.08, H 2.43, M 2.5, E 3.42
V8: F 2.55, T 3.81, Y 2.96, P 3.32, W 2.88, D 3.62, I 2.73, C 3.02, N 3.94, G 3.12, S 3.35, L 3.47, H 3.12, R 3.36, A 3.85, M 3.2, K 3.07, Q 3.31, E 3.79
Y9: K 3.72, G 3.5, N 3.52, T 4.39, V 3.27, E 4.4, W 3.31, R 3.12, H 3.55, A 4.12, P 3.57, Q 3.98, I 3.67, S 3.78, M 3.66, C 3.58, F 2.72, D 4.2, L 3.2
S6: Y 2.71, N 3.29, A 3.6, W 2.32, T 3.53, R 2.88, E 4.21, G 3.56, I 2.69, M 3.23, H 3.35, D 4.67, C 2.77, K 3.23, F 2.63, P 4, V 3.47, L 2.66, Q 3.14
